Source: patent US20140322225A1 (ADRENOMED, published 2014)

What was measured:
[1] = biological target: human adrenomedullin (hADM 1-52) (human); assay: cell-based or functional assay
[2] = biological target: T1, human adrenomedullin (hADM 1-52) (human); assay: SPR (Biacore 2000), antibody captured via anti-mouse Fc, adrenomedullin as analyte
T1 construct: 52 amino acids, aa 95-146 of pre-proADM; also called Human ADM 1-52
Experimental: Reversible immobilization of the antibodies was performed using an anti-mouse Fc antibody covalently coupled in high density to a CM5 sensor surface according to the manufacturer's instructions (mouse antibody capture kit; GE Healthcare). (Lorenz et al., “Functional Antibodies Targeting IsaA of Staphylococcus aureus Augment-lost Immune Response and Open New Perspectives for Antibacterial Therapy”; Antimicrob Agents Chemother. 2011 January; 55(1): 165-173.)

[3] = biological target: T1, human adrenomedullin (hADM 1-52); assay: cell-based or functional assay; remark: listed apart in the source
[4] = biological target: human recombinant adrenomedullin receptor (CRLR+RAMP3) (human); assay: cell-based or functional assay

T1 sequence (peptide, as listed by the source): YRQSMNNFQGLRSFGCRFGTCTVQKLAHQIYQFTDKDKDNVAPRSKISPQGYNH

IC50 (read off the curve), half of the antibody's own maximal inhibition of cAMP formation induced by 5.63 nM hADM [1] | Kd [2] | fold stability of hADM in human citrate plasma with NT-H against hADM alone (7.8 h) [3] | EC50 (read off the curve), cAMP formation [4] | Binder
~2 µg/mL | 5.9 nM | 2.3 fold |  | NT-H (antibody, V domains shown, also called NT-H antibody; antibody NT-H) VH: QVQLQQSGAELMKPGASVKISCKATGYTFSRYWIEWVKQRPGHGLEWIGEILPGSGSTNYNEKFKGKATITADTSSNTAYMQLSSLTSEDSAVYYCTEGYEYDGFDYWGQGTTLTVSS VL: DVLLSQTPLSLPVSLGDQATISCRSSQSIVYSNGNTYLEWYLQKPGQSPKLLIYRVSNRFSGVPDRFSGSGSGTDFTLKISRVEAEDLGVYYCFQGSHIPYTFGGGTKLEIK
 |  |  | ~0.08 nM | mouse adrenomedullin (mADM 1-50) (peptide) peptide: YRQSMNQGSRSNGCRFGTCTFQKLAHQIYQLTDKDKDGMAPRNKISPQGYNH
